Legend:
[1] = target: HLA-A2 alone (recombinant human HLA-A2:Ig fusion protein, DimerX I, without added peptide) (human); experiment: flow cytometry of CAR-T cells incubated with biotinylated HLA-A2, then streptavidin-APC; 82.9% GFP+ APC- (lower right); untransduced T cells: 0.02% in the upper right quadrant
[2] = target: AIQ-HLA-A2 complex (… peptide loaded on recombinant human HLA-A2:Ig fusion protein, DimerX I) (human); experiment: flow cytometry of CAR-T cells incubated with biotinylated AIQ-HLA-A2, then streptavidin-APC; 82.4% GFP+ APC- (lower right); untransduced T cells: 0.00% in the upper right quadrant
[3] = target: SLL-HLA-A2 complex (NY-ESO-1 peptide … loaded on recombinant human HLA-A2:Ig fusion protein, DimerX I) (human); experiment: flow cytometry of CAR-T cells incubated with biotinylated SLL-HLA-A2, then streptavidin-APC; 82.6% GFP+ APC- (lower right); untransduced T cells: 0.04% in the upper right quadrant

% of cells in the upper right quadrant (GFP+ / streptavidin-APC+) [1]: 0.13%
% of cells in the upper right quadrant (GFP+ / streptavidin-APC+) [2]: 0.17%
% of cells in the upper right quadrant (GFP+ / streptavidin-APC+) [3]: 0.03%
Substance: CD19 CAR expressed on human CD8+ T cells
